{"source": "patent US20070041972A1", "about": "(Alexion, published 2007)", "binders": {"B1": {"name": "chimeric OKT3 hG2/G4 recombinant antibody (murine OKT3 variable regions, engineered human IgG2/IgG4 heavy chain constant region, human kappa constant region) (antibody)", "heavy": "not shown", "light": "QIVLTQSPAIMSASPGEKVTMTCSASSSVSYMNWYQQKSGTSPKRWIYDTSKLASGVPAHFRGSGSGTSYSLTISGMEAEDAATYYCQQWSSNPFTFGSGTKLEIKRTVAAPSVFIFPPSDEQLKSGTASVVCLLNNFYPREAKVQWKVDNALQSGNSQESVTEQDSKDSTYSLSSTLTLSKADYEKHKVYACEVTHQGLSSPVTKSFNRGEC", "notes": "Made in two expression systems; also called chimeric antibody containing an engineered IgG2/IgG4 human constant region"}}, "key": {"[1]": {"target": "T1, human low affinity receptor for IgG (FcγRII) on K562 cells (human, UniProt P12318 34-317)", "T1 construct": "whole, on cells", "T1 sequence (looked up)": "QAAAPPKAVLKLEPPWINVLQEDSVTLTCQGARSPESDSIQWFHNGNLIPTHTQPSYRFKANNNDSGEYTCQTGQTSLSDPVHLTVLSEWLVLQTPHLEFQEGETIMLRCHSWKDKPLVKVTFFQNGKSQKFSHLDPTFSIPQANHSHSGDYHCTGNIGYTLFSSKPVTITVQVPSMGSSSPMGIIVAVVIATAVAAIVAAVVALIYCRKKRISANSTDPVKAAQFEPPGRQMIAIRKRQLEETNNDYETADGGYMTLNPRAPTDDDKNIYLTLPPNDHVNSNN", "test": "flow cytometry on K562 cells, antibody complexed with FITC-rabbit Fab'2 anti-human Fab'2", "source_text": "Binding of the FITC—rabbit Fab′2 anti-human Fab′2 antibodies alone is also indicated."}, "[2]": {"target": "T2, human high affinity receptor for IgG (FcγRI) on U937 cells (human, UniProt P12314 16-374)", "T2 construct": "whole, on cells; also called FcγRI receptor", "test": "flow cytometry competition with 3.0 ng/mL biotinylated hIgG on U937 cells", "procedure": "The antibody produced in accordance with this Example was tested to evaluate binding to the human high affinity receptor for IgG (FcγRI)."}}, "data": [{"binder": "B1", "values": [{"measurement": "binding result", "setting": "[1]", "result": "no binding"}, {"measurement": "binding result", "setting": "[2]", "result": "no binding"}]}]}
